Experimental data taken from paper PMC5062252, “High-resolution crystal structure of the therapeutic antibody pembrolizumab bound to the human PD-1” (Scientific Reports, 2016).

Target: T1, extracellular domain of human PD-1 (PD-1ECD), residues 32-160, C93S (human, C93S (stands in the printed letters))
T1 construct: additional N-terminal residues retained after restriction site cloning; additional C-terminal residues retained after cloning and TEV cleavage; also called programmed cell death-1; CD279; not shown: His6, C-terminal, cleaved
T1 chain: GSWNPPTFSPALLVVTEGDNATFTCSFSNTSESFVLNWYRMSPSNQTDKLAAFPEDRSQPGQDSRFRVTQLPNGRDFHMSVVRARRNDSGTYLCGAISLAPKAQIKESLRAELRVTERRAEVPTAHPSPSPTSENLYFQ
Assay: SEC; analytical gel filtration of the PemFv/PD-1ECD complex; data not shown
Conditions: both partners purified

B1: Fv fragment of pembrolizumab (PemFv) (other)
VL: EIVLTQSPATLSLSPGERATLSCRASKGVSTSGYSYLHWYQQKPGQAPRLLIYLASYLESGVPARFSGSGSGTDFTLTISSLEPEDFAVYYCQHSRDLPLTFGGGTKVEIKTSENLYFQ
VH: QVQLVQSGVEVKKPGASVKVSCKASGYTFTNYYMYWVRQAPGQGLEWMGGINPSNGGTNFNEKFKNRVTLTTDSSTTTAYMELKSLQFDDTAVYYCARRDYRFDMGFDYWGQGTTVTVSS
notes: pembrolizumab light chain variable region (PemVL); additional C-terminal residues retained after TEV cleavage; pembrolizumab heavy chain variable region (PemVH); Fv fragment: VL and VH as two separate chains, not linked; also called pembrolizumab Fv; Keytruda; not shown: His6, C-terminal, cleaved; copies: 1 + 1
**Q.** How did the “stoichiometry N” value turn out when B1 was run?
**A.** The value was 1.
